Reference: paper PMC8464072, “YB-1 unwinds mRNA secondary structures in vitro and negatively regulates stress granule assembly in HeLa cells”

Columns and labels:
YB-1C [1] = biological target: T1, YB-1C (UniProt P67809 1-180); assay: NMR (1H-15N HSQC); single peaks; NMR: 25 mM phosphate pH 6.8, 25 mM KCl, 298 K, 50-100 uM protein; EMSA: 20 mM HEPES pH 7.5, 60 mM KCl, room temperature; melting: 10 mM HEPES-KOH pH 7.6, 130 mM KCl, 30 C; details: protein: recombinant; tags: His tag (Ni-NTA)
YB-1C [2] = biological target: T1, YB-1C; assay: fluorescence melting; 130 mM KCl, 30 C; 10:1 protein:DNA; NMR: 25 mM phosphate pH 6.8, 25 mM KCl, 298 K, 50-100 uM protein; EMSA: 20 mM HEPES pH 7.5, 60 mM KCl, room temperature; melting: 10 mM HEPES-KOH pH 7.6, 130 mM KCl, 30 C; details: protein: recombinant; tags: His tag (Ni-NTA); label: 5' FAM, 3' BHQ1; hairpin
YB-1 (full length) = YB-1 (full length) (UniProt P67809 1-324); assay: fluorescence melting; 130 mM KCl, 30 C; 10:1 protein:DNA; opening of hairpin; NMR: 25 mM phosphate pH 6.8, 25 mM KCl, 298 K, 50-100 uM protein; EMSA: 20 mM HEPES pH 7.5, 60 mM KCl, room temperature; melting: 10 mM HEPES-KOH pH 7.6, 130 mM KCl, 30 C; details: protein: recombinant, tags: His tag (Ni-NTA), label: 5' FAM, 3' BHQ1
Sequence of YB-1 (full length) (P67809 whole entry): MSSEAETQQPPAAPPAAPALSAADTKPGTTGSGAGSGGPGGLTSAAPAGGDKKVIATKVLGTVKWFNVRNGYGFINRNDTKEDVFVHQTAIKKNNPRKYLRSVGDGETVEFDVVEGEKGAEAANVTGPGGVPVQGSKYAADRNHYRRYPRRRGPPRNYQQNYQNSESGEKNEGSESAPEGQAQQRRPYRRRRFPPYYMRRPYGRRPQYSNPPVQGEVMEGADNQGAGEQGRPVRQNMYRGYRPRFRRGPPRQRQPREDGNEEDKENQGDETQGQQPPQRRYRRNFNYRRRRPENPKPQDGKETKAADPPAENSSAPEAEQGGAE

YB-1-KY [3] = biological target: T2, YB-1-KY (UniProt P67809 1-180, K137A;Y138A); assay: NMR (1H-15N HSQC); CSD binding unaffected vs wild type; NMR: 25 mM phosphate pH 6.8, 25 mM KCl, 298 K, 50-100 uM protein; EMSA: 20 mM HEPES pH 7.5, 60 mM KCl, room temperature; melting: 10 mM HEPES-KOH pH 7.6, 130 mM KCl, 30 C; details: protein: recombinant; tags: His tag (Ni-NTA)
T2 sequence (P67809 1-180 K137A/Y138A): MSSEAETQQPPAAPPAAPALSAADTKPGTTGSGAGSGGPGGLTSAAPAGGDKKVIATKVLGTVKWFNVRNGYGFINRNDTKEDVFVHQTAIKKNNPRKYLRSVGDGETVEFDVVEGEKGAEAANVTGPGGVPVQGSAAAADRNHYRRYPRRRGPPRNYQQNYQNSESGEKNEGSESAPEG

YB-1-RK [4] = biological target: T3, YB-1-RK (UniProt P67809 1-180, R97A;K98A); assay: as above; details: protein: recombinant; tags: His tag (Ni-NTA)
T3 sequence (P67809 1-180 R97A/K98A): as the sequence (P67809 1-180 K137A/Y138A) above, with R97A, K98A, A137K, A138Y counted along it

YB-1C [5] = biological target: T1, YB-1C; assay: NMR (1H-15N HSQC); multiple peaks; NMR: 25 mM phosphate pH 6.8, 25 mM KCl, 298 K, 50-100 uM protein; EMSA: 20 mM HEPES pH 7.5, 60 mM KCl, room temperature; melting: 10 mM HEPES-KOH pH 7.6, 130 mM KCl, 30 C; details: protein: recombinant; tags: His tag (Ni-NTA); hairpin, 10 bp stem, 4 nt loop
YB-1-KY [6] = biological target: T2, YB-1-KY; assay: NMR (1H-15N HSQC); no multiple peaks; stem not destabilized; NMR: 25 mM phosphate pH 6.8, 25 mM KCl, 298 K, 50-100 uM protein; EMSA: 20 mM HEPES pH 7.5, 60 mM KCl, room temperature; melting: 10 mM HEPES-KOH pH 7.6, 130 mM KCl, 30 C; details: protein: recombinant; tags: His tag (Ni-NTA); hairpin, 10 bp stem, 4 nt loop
YB-1-RK [7] = biological target: T3, YB-1-RK; assay: as above; details: protein: recombinant; tags: His tag (Ni-NTA); hairpin, 10 bp stem, 4 nt loop
FUS RRM = FUS RRM (UniProt P35637 275-385); assay: NMR; CSPs (data not shown); no stem opening at 1.75:1; NMR: 25 mM phosphate pH 6.8, 25 mM KCl, 298 K, 50-100 uM protein; EMSA: 20 mM HEPES pH 7.5, 60 mM KCl, room temperature; melting: 10 mM HEPES-KOH pH 7.6, 130 mM KCl, 30 C; details: protein: recombinant; hairpin, 10 bp stem, 4 nt loop
Sequence of FUS RRM (P35637 275-385): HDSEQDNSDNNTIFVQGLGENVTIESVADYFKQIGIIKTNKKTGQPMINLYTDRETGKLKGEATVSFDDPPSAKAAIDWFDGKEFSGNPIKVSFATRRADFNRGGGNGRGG

YB-1C [8] = biological target: T1, YB-1C; assay: NMR (1H imino and 1H-15N HSQC); multiple peaks at 1:1, lost at 0.25:1; NMR: 25 mM phosphate pH 6.8, 25 mM KCl, 298 K, 50-100 uM protein; EMSA: 20 mM HEPES pH 7.5, 60 mM KCl, room temperature; melting: 10 mM HEPES-KOH pH 7.6, 130 mM KCl, 30 C; details: protein: recombinant; tags: His tag (Ni-NTA); hairpin, 10 bp stem, 4 nt loop

T1 sequence (P67809 1-180): as the sequence (P67809 1-180 K137A/Y138A) above, with A137K, A138Y counted along it

B1: T10 (ssDNA)
DNA: TTTTTTTTTT
Q: Does B1 bind (YB-1C [1])?
A: binds

B2: DNA1 hairpin (structured_DNA)
DNA: GGGGGGGGTTAACCCCCCCC
Q: Does B2 bind (YB-1C [2])?
A: binds

Q: Does B2 bind (YB-1 (full length))?
A: binds

B3: C10 (ssDNA)
DNA: CCCCCCCCCC
Q: Does B3 bind (YB-1C [1])?
A: binds

Q: Does B3 bind (YB-1-KY [3])?
A: binds

Q: Does B3 bind (YB-1-RK [4])?
A: binds

B4: ACU-4G RNA stem/loop (structured_RNA)
RNA: ACAGACAGAACCCCUUCUGUCUGU
Q: What does the source list for B4?
A: binding result (YB-1C [5]): binds; binding result (YB-1-KY [6]): binds; binding result (YB-1-RK [7]): binds

B5: ACT-4G DNA stem/loop (structured_DNA)
DNA: ACAGACAGAACCCCTTCTGTCTGT
Q: Does B5 bind (FUS RRM)?
A: binds

Q: Does B5 bind (YB-1C [8])?
A: binds

B6: A10 (ssDNA)
DNA: AAAAAAAAAA
Q: Does B6 bind (YB-1C [1])?
A: binds
